1 molecule from publication PMC7515722, “Participation of RecJ in the base excision repair pathway of Deinococcus radiodurans” can be followed below.

For the series, the target named is T1, drRecJ R109A (Deinococcus radiodurans, UniProt D0EM60 1-705, R109A).
T1 sequence: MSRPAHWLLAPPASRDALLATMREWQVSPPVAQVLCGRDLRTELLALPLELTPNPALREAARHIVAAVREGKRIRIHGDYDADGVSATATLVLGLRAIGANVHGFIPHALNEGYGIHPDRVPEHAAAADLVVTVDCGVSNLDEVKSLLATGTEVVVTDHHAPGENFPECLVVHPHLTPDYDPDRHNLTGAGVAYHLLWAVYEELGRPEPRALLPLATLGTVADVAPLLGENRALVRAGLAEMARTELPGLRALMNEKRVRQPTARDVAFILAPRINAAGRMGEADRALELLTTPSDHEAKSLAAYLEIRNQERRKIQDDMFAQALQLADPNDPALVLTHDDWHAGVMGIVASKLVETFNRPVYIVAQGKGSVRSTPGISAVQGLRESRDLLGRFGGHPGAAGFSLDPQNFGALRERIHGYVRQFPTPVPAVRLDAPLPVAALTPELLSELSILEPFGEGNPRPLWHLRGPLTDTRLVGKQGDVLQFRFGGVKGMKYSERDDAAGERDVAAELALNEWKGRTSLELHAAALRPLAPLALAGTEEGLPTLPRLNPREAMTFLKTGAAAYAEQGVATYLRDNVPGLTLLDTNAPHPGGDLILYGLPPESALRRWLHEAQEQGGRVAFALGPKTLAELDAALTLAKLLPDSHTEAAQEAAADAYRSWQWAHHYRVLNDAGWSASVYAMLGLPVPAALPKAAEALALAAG
Kind of series: EMSA; no Mn2+ added; EMSA: 10 nM 3'-6-FAM ssDNA, 50 mM Tris-HCl pH 7.5, 150 mM KCl, 0.1 mg/ml BSA, 1 mM DTT, 5% glycerol, 20 min at 30 C; 8% native PAGE in TBE; Hill fit. To be noted: protein: recombinant; tags: tag removed with TEV; label: 3'-6-FAM. In general terms: A gel shift assay detects complexes by their altered migration in electrophoresis.

B1: KY11, 5'-P-dSpacer-(dA)20 (ssDNA)
DNA: AAAAAAAAAAAAAAAAAAAA
modifications: 5'-P-dSpacer (tetrahydrofuran abasic, 5'-dRP mimic) added before A1
Take B1: the binding signal was 2 fold reduction.
